Positions count from the first letter of the chain named. One block for each binder: values may come before it.
What was measured:
[1] = biological target: T1, full-length human CD22 fused with flag and Myc tags at the C-terminus, on HEK293 or K562 cells (human, UniProt P20273 20-847); experiment: FACS, scFv titrated on CD22-expressing cells, anti-His Alexa 488
T1 construct: whole, on cells; also called CD22/K562; CD22/HEK293; not shown: C-terminal flag and Myc tags of the pCMV6-Entry vector
T1 sequence (looked up): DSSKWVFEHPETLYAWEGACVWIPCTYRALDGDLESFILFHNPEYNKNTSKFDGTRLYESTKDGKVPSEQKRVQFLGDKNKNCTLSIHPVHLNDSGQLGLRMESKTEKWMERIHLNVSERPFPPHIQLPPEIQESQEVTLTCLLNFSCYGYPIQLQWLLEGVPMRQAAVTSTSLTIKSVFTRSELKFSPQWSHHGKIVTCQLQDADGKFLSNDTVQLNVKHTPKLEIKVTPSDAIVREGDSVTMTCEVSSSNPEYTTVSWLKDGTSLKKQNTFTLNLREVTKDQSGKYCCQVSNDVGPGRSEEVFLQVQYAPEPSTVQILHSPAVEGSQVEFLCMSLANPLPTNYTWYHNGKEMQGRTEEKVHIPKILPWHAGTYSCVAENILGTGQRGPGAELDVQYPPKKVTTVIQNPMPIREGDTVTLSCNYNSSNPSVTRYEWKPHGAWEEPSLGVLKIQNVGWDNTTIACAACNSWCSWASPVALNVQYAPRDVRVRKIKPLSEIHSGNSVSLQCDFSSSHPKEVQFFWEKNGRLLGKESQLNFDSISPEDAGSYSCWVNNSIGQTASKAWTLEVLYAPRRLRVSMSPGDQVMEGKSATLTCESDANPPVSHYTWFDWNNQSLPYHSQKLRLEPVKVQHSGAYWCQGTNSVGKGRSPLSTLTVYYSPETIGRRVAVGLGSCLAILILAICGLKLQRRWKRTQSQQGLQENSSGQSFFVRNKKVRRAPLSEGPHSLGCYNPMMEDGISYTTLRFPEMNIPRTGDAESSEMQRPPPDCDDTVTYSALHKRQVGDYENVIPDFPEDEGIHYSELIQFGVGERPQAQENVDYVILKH

[2] = biological target: T2, human CD22-Fc fusion protein (human, UniProt P20273 20-687, limits assumed); experiment: SPR Biacore T200; CD22-Fc captured on Protein G chip, scFv as analyte;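 further: run in 1×HBST buffer, with the response of reference flow cell 1 subtracted from the CD22 capture cell and kinetics fitted in Biacore T200 evaluation software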
T2 construct: also called recombinant CD22-Fc fusion protein; not shown: Fc part
T2 sequence (looked up): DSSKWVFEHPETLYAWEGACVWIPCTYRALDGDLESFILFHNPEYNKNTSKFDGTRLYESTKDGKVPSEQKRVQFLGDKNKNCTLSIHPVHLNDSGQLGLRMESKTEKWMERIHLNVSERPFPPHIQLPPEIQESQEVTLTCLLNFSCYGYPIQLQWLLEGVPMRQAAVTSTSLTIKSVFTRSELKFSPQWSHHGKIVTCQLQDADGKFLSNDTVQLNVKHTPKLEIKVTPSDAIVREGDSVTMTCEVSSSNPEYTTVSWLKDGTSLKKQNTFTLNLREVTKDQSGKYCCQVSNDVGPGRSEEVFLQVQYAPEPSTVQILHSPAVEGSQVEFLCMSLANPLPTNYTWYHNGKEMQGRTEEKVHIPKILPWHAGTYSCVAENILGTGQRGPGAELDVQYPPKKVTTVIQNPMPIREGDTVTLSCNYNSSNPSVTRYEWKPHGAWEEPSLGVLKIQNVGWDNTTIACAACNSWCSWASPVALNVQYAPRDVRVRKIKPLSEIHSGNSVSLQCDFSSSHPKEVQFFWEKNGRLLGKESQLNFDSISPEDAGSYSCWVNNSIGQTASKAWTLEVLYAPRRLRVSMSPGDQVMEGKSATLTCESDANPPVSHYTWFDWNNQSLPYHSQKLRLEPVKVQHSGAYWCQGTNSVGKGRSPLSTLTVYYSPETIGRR

B1: EP97-A10 scFv (scFv)
scFv: QVQLVQSGAEVKRPGASVKVSCKASGYTFTSYGISWVRQAPGQGLEWMGWISAYNGNTNYAQKLQGRVTMTTDTSTSTAYMELRSLRSDDTAVYYCARDPGIAVAGTVDYWGQGTLVTVSSGGGGSGGGGSGGGGSEIVMTQSPATLSVSPGEGVTLSCRASQSVSSNLAWYQQRPGQAPRLLIYGASIKATDVPDRFSGGGSGTDFTLSISNVQSEDFAVYYCQQYHTWTPVTFGGGTKVEIK
notes: VH-VL orientation; not shown: C-terminal flag and 6xHIS tag
EC50 [1]: 1 nM
Kd [2]: 3.57 nM
koff [2]: 0.000145 s⁻¹
kon [2]: 40500 M⁻¹ s⁻¹

B3: EP35-A7 scFv (scFv)
scFv: EVQLVESRGGVVQPGGSLRLSCAASGFTFSSYGMHWVRQAPGKGLEWVAFIRYDGSNKYYADSVKGRFTISRDNSKNTLYLQMNSLRAEDTAVYYCAKETVTTNYYYYMDVWGKGTTVTVSSGGGGSGGGGSGGGGSDVVMTQSPLSLPVTLGQPASISCRSSRSLEYNDGNTYLNWFHQRPGQSPRRLIYKVSNRDSGVPDRFSGSGSDTDFTLKISRVEAEDVGIYYCMQGTHWPLTFGQGTRLEIK
notes: as for B1
EC50 [1]: 10.4 nM

B5: EP35-D6 scFv (scFv)
scFv: QVQLVQSGTEVKKPGASVKVSCKASGYTFTNNAITWVRQAPGQGLEWMGYISTSSDNINYAQKFRGRLTLTTDTSTGTAYMELSSLRSDDTATYYCARDGIFGGRDDPWGQGTLVTVSSGGGGSGGGGSGGGGSDIVMTQSPSSLSASVGDRVTITCQASQDISNYLNWYQQKPGKAPKLLIYDASNLETGVPSRFSGSGSETDFTITISSLQPEDIATYYCQQYDNLPLTFGGGTKVR
notes: as for B1
EC50 [1]: 47 nM

B6: EP35-F7 scFv (scFv)
scFv: EVQLVQSGGGVVQPGRSLRLSCAASGFTFSSYGMHWVRQAPGKGLEWVAVIWYDGSNKYYADSVKGRFTISRDNSKNTLYLQMNSLRAEDTAVYYCARDGWKGFDYWGQGTTVTVSSGGGGSGGGGSGGGGSEIVLTQSPATLSVSPGEGVTLSCRASQSVSSNLAWYQQRPGQAPRLLIYGASIKATDVPDRFSGGGSGTDFTLSISNLQSEDFAVYYCQQYHTWPPVTFGGGTKVEIK
notes: also called EP35-F07; not shown: C-terminal flag and 6xHIS tag
Kd [2]: 11.3 nM
koff [2]: 0.00098 s⁻¹
kon [2]: 86900 M⁻¹ s⁻¹

B7: EP97-A01 scFv (scFv)
scFv: B6 scFv with R19K
notes: as for B1
Kd [2]: 14.2 nM
koff [2]: 0.00101 s⁻¹
kon [2]: 71300 M⁻¹ s⁻¹

B9: EP35-C6 scFv (scFv)
scFv: QVQLVESGGGVVQPGGSLRLSCAASGFPFSRFGIHWVRQAPGKGLDWVAFIRTDGGSQHYADSVKGRFTISRDNSENMVYLQMNSLRVDDTALYYCAKDPPRVTGNTGYDYDWGQGVQVTVSSGGGGSGGGGSGGGGSDIVMTQSPDSLAVSLGERATINCKSSQSVLYSANNKNCLAWYQQKSGQPPKLLIYWASTRESGVPGRFSGSGSGTDFTLTISSLQAEDVAVYYCQQYYSPPRTFGQGTKLEIK
notes: VH-VL orientation; also called EP35-C06; not shown: C-terminal flag and 6xHIS tag
EC50 [1]: 19.3 nM
Kd [2]: 15.8 nM
koff [2]: 0.000985 s⁻¹
kon [2]: 62500 M⁻¹ s⁻¹

B10: EP35-B05 scFv (scFv)
scFv: QVQLVQSGAEVKKPGASVKVSCKASGYTFTSYGISWVRQAPGQGLEWMGWISAYNGNTNYAQKLQGRVTMTTDTSTSTAYMELRSLRSDDTAVYYCARDSGNSPIDYWGQGTLVTVSSGGGGSGGGGSGGGGSEIVMTQSPATLSVSPGEGVTLSCRASQSVSSNLAWYQQRPGQAPRLLIYGASIKATDVPDRFSGGGSGTDFTLSISNLQSEDFAVYYCQQYHTWPPVTFGGGTKVEIK
notes: VH-VL orientation; also called EP35-B5; not shown: C-terminal flag and 6xHIS tag
EC50 [1]: 77 nM

B11: EP35-C8 scFv (scFv)
scFv: B10 scFv with R87G, N102S, P104D, I105L, R172K, I181M, N210S
notes: VH-VL orientation; also called EP35-C08; not shown: C-terminal flag and 6xHIS tag
EC50 [1]: 4.6 nM

B14: EP35-E6 scFv (scFv)
scFv: QVQLVESGGALVQPGGSLRLSCVVSGFPFSTAWMNWVRQAPGKGLEWVARIKSEAHGGTTHYAPPVQGRFTISRDDSKNTVSLQMNSLKTEDTGVYYCGDFQWGQGTLVTVSSGGGGSGGGGSGGGGSVIWMTQSPSSLSASVGDRITITCQASQDISNFLNWYQQKPGEAPKLLLYDASNLERGVPSRFSGGGSGTDFTLTISSLQPEDIATYFCQQYDNLPLTFGGGTKVEIK
notes: as for B1
EC50 [1]: 14.2 nM

B16: EP97-B03 scFv (scFv)
scFv: QLVQSGAEVKKPGASVKVSCKASGYTFSSYGITWVRQAPGQGLEWMGWISAYNGNTNYAQKFQGRVTLTTDTSTSIAYMELRSLTSDDTAVYYCATGGQEDYWGQGTLVTVSSGGGGSGGGGSGGGGSEIVLTQSPATLSVSPGERATLSCRASQSVSSNLAWYQQKPGQAPRLLIYGASTRATGIPARFSGSGSGTEFTLTISSLQSEDFAVYYCQQYNSWPPLTFGGGTKVEIK
notes: as for B1
EC50 [1]: 0.7 nM
Kd [2]: 0.846 nM
koff [2]: 0.000318 s⁻¹
kon [2]: 376000 M⁻¹ s⁻¹

The next lines start with the values.

EC50 [1]: 0.68 nM
Kd [2]: 1.84 nM
koff [2]: 0.000112 s⁻¹
kon [2]: 60900 M⁻¹ s⁻¹
B2: EP160-H02 scFv (scFv)
scFv: QVQLVQSGAEVKKPGASVKVSCKASGYTFTSYGISWVRQAPGQGLEWMGGIIAYNGNTNYAQKLQGRVTMTTDTSTSTAYMELRSLRSDDTAVYYCARDPPEYSSSAGTDYWGQGTLVTVSSGGGGSGGGGSGGGGSEIVMTQSPATLSVSPGEGVTLSCRASQSVSSNLAWYQQRPGQAPRLLIYGASIKATDVPDRFSGGGSGTDFTLSITNLQSEDFAVYYCQQYHTWSPVTFGGGTKVEIK
notes: as for B1

EC50 [1]: 2.9 nM
B4: EP160-G05 scFv (scFv)
scFv: EVQLVQSGAEVKKPGASVKVSCKASGYTFTSYGISWVRQAPGQGLEWMGWISAYNGNTNYAQKLQGRVTMTTDTSTSTAYMELRSLRSDDTAVYYCARDPSMDVWGQGTTVTVSSGGGGSGGGGSGGGGSEIVLTQSPATLSVSPGERATLSCRASQSVSSNLAWYQQKPGQAPRLLIYGASTRATGIPARFSGSGSGTEFTLTISSLQSEDFAVYYCQQYNSWPPITFGQGTRLEIK
notes: as for B1

EC50 [1]: 6.8 nM
Kd [2]: 5.52 nM
koff [2]: 0.00164 s⁻¹
kon [2]: 297000 M⁻¹ s⁻¹
B8: EP160-E03 scFv (scFv)
scFv: B6 scFv with R16K, K102T
notes: as for B1

EC50 [1]: 5.2 nM
B12: EP160-C07 scFv (scFv)
scFv: B10 scFv with V2M, S100A, G101V, N102A, S103G, P104S, I105R, D106G, M137L, G234E
notes: VH-VL orientation; also called EP160-007; not shown: C-terminal flag and 6xHIS tag

EC50 [1]: 10 nM
Kd [2]: 0.219 nM
koff [2]: 0.000195 s⁻¹
kon [2]: 888000 M⁻¹ s⁻¹
B13: EP97-F01 scFv (scFv)
scFv: B10 scFv with S100H, G101I, N102A, S103A, P104A, I105G, S209T
notes: as for B1

EC50 [1]: 3.3 nM
Kd [2]: 0.166 nM
koff [2]: 4.19e-05 s⁻¹
kon [2]: 252000 M⁻¹ s⁻¹
B15: EP97-G05 scFv (scFv)
scFv: EVQLVQSGAEVKKPGASVKVSCKASGYTFTSYGISWVRQAPGQGLEWMGWISAYNGNTNYAQKLQGRVTMTTDTSTSTAYMELRSLRSDDTAVYYCARDYGDPSGDDYWGQGTLVTVSSGGGGSGGGGSGGGGSEIVLTQSPATLSVSPGEGVTLSCRASQSVSSNLAWYQQRPGQAPRLLIYGASIKATDVPDRFSGGGSGTDFTLSISNLQSEDFAVYYCQQYHTWPPVTFGGGTKVEIK
notes: VH-VL orientation; also called EP097-G05; not shown: C-terminal flag and 6xHIS tag
